{"source": "patent EP2379590B1", "about": "(Development Center for Biotechnology, dated 2018)", "experiment_in_all_cases": "cell-based or functional assay", "key": {"[1]": {"target": "glycoprotein D of HSV-1 00410 (clinical strain), on infectious virus (HSV-1 (clinical strain 00410))"}, "[2]": {"target": "glycoprotein D of HSV-2 00040 (clinical strain), on infectious virus (HSV-2 (clinical strain 00040))"}, "[3]": {"target": "glycoprotein D of HSV-1 KOS, on infectious virus (HSV-1 (KOS strain), UniProt A1Z0Q5 26-394)", "sequence (A1Z0Q5 26-394 limits assumed)": "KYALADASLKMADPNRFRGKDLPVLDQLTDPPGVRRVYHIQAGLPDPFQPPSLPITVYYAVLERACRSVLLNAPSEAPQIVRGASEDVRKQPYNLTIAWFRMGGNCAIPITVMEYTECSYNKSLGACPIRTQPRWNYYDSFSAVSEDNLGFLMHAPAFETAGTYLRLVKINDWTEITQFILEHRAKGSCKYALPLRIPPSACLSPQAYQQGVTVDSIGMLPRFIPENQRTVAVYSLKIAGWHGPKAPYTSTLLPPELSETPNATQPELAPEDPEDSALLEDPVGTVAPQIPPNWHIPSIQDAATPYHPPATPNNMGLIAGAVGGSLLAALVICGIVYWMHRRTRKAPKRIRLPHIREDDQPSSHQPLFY"}, "[4]": {"target": "glycoprotein D of HSV-2 186, on infectious virus (HSV-2 (strain 186))"}}, "data": [{"binder": "scFv E425 (scFv, not shown: small tags and cut ends) scFv: QVQLQQSGAGVKKPGSSVRVSCSASGGTLRTYALSWVRQVPGQGFEWMGRIIPMFGKTDYAQKFQGRLSITADKSMDTGFMELTSLTSEDTAVYYCARDLTTLTSYNWLDIWGQGTLVTVSSGGGGSGGGGSGGGGSETTLTQSPGTLSLSPGERATLSCRASQSVSSNYLAWYQKKPGQAPRLLIYGASSRATGIPDRFSGSGSGTDFTLTINRLEPEDFAVYYCQQYGRSPTFGQGTKVEIKR", "values": [{"measurement": "IC50, plaque reduction assay in Vero cells (HSV-1 00410)", "setting": "[1]", "value": 1.8, "unit": "nM"}, {"measurement": "IC50, plaque reduction assay in Vero cells (HSV-2 00040)", "setting": "[2]", "value": 1.16, "unit": "nM"}, {"measurement": "IC50, plaque reduction assay in Vero cells (HSV-1 KOS)", "setting": "[3]", "value": 2.2, "unit": "nM"}, {"measurement": "IC50, plaque reduction assay in Vero cells (HSV-2 186)", "setting": "[4]", "value": 4.5, "unit": "nM"}]}]}
